Two proteins from paper PMC12784347, “Structural insights into substrate binding, residue contributions, and catalytic mechanism of phosphopantetheine adenylyltransferase from Helicobacter pylori” (Bioscience Reports, 2025) can be followed below.

Data set [1] concerns the molecule itself. Kind of data set: crystal structure; HpPPAT:ATP; reservoir 17% PEG1000, 0.1 M citrate phosphate pH 4.2, 1.5 mM ATP, 0.2 M Li2SO4; space group P1, 12 copies in the asymmetric unit; 2.12 Å.
Data set [2] deals with the molecule itself. Description: crystal structure; apo HpPPAT; hanging-drop vapor diffusion, 293K, protein 15 mg/ml in 20 mM Tris-HCl pH 7.9, 100 mM NaCl; reservoir 2.5 M NaCl, 0.1 M sodium acetate pH 4.5, 0.2 M Li2SO4; space group H3, two copies in the asymmetric unit; 1.98 Å.
Data set [3] concerns the molecule itself. Kind of data set: crystal structure; HpPPAT P8A:dPCoA; reservoir 18% PEG550 MME, 0.2 M KF pH 7.4; space group P2(1)2(1)2, hexamer; 2.00 Å.

Broadly, the stoichiometry N is a count of units in the complex or per binding partner.

B1: Helicobacter pylori phosphopantetheine adenylyltransferase, wild type (enzyme)
chain: MQKIGIYPGTFDPVTNGHIDIIHRSSELFEKLIVAVAHSSAKNPMFSLDERLKMIQLATKSFKNVECVAFEGLLANLAKEYHCKVLVRGLRVVSDFEYELQMGYANKSLNHELETLYFMPTLQNAFISSSIVRSIIAHKGDASHLVPKEIYPLISKA
notes: Phosphopantetheine adenylyltransferase (PPAT; EC 2.7.3.3) of Helicobacter pylori; each monomer in the crystal structures comprises 157 residues; also called HpPPAT; WT HpPPAT
Regarding B1, the “stoichiometry N” value in data set [1] came to 12; in data set [2], 2.

B2: Helicobacter pylori phosphopantetheine adenylyltransferase P8A mutant (enzyme)
chain: MQKIGIYAGTFDPVTNGHIDIIHRSSELFEKLIVAVAHSSAKNPMFSLDERLKMIQLATKSFKNVECVAFEGLLANLAKEYHCKVLVRGLRVVSDFEYELQMGYANKSLNHELETLYFMPTLQNAFISSSIVRSIIAHKGDASHLVPKEIYPLISKA
notes: Phosphopantetheine adenylyltransferase (PPAT; EC 2.7.3.3) of Helicobacter pylori with Pro8 replaced by alanine; also called HpPPAT P8A; HpPPAT mutant P8A
Consider B2, for which, in data set [3], the “stoichiometry N” value was 6.
